Legend:
[1] = target: N-terminal domain of the ectodomain of Hepatitis C virus envelope glycoprotein E1, N43Q (Hepatitis C virus); assay: reducing and nonreducing SDS-PAGE; 15% reducing (R) and nonreducing (NR) SDS-PAGE gels of purified deglycosylated HCV nE1; covalent dimer
[2] = target: N-terminal domain of the ectodomain of Hepatitis C virus envelope glycoprotein E1, N43Q (Hepatitis C virus); assay: SEC; size-exclusion chromatography; data not shown

“N-terminal domain of the ectodomain of Hepatitis C virus envelope glycoprotein E1, N43Q (domain or fragment)” was tested. Which stoichiometry N [1] did it give?
Its stoichiometry N is 2.

And the stoichiometry N [2]?
The stoichiometry N was 2.
